This is an account of results in US20090098124A1 (MacroGenics, published 2009).

Positions count from the first letter of the chain named. Names and notes keep the numbering of the source. Like-named read-outs stand apart in the source and are kept apart here.

The target in test [1] is soluble monomeric FcγRIIIA (extracellular region joined to linker-AVITAG), allele not stated (human) (UniProt P08637). Briefly: ELISA. Background: In an ELISA, binding on a coated surface is turned into a signal by an enzyme label.
Chain of soluble monomeric FcγRIIIA (extracellular region joined to linker-AVITAG), allele not stated (human) (P08637 17-208): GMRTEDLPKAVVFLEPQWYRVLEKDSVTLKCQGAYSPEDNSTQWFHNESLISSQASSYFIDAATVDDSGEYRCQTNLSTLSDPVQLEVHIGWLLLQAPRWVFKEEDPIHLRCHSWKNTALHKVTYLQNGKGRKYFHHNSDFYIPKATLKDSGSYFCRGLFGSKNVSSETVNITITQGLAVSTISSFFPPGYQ
The target in test [2] is soluble FcγRIIIA 158F (human) (UniProt P08637). The test can be described thus: SPR (BIAcore) steady-state analysis, ch4D5 antibody captured on immobilised ErbB2/Fc-aglycosyl chimera, soluble FcγRIIIA F158 (printed 3aF150) injected at 0.2-[…]. A general note: In SPR one partner is held on a chip, and binding of the other changes the refractive index at the surface.
Chain of soluble FcγRIIIA 158F (human) (P08637 17-208): as above
Test [3] deals with soluble FcγRIIIA 158V (human) (UniProt P08637). The test can be described thus: SPR (BIAcore) steady-state analysis, ch4D5 antibody captured on immobilised ErbB2/Fc-aglycosyl chimera, soluble FcγRIIIA V158 (printed 3aV150) injected at 0.1-[…].
Test [4] deals with soluble dimeric FcγRIIB (extracellular domain fused to hinge-CH2-CH3 of human IgG2) (human) (UniProt P31994). Briefly: ELISA.
Test [5] has the same target. Briefly: SPR.
Test [6] deals with soluble monomeric FcγRIIIA (extracellular region joined to linker-AVITAG), allele not stated (human) (UniProt P08637). The test can be described thus: SPR.
For test [7], the target named is soluble dimeric FcγRIIB (extracellular domain fused to hinge-CH2-CH3 of human IgG2) (human) (UniProt P31994). The test can be described thus: SPR. This is another data set of the same source.
Test [8] has as its target soluble monomeric FcγRIIIA (extracellular region joined to linker-AVITAG), allele not stated (human) (UniProt P08637). Briefly: SPR. This is another data set of the same source.
For test [9], the target named is T1, soluble dimeric FcγRIIB (extracellular domain fused to hinge-CH2-CH3 of human IgG2) (human, UniProt P31994 43-217).
T1 construct: extracellular domain; also called FcRIIB; FcRIIB-Fc; not shown: human IgG2 hinge-CH2-CH3
T1 sequence (looked up): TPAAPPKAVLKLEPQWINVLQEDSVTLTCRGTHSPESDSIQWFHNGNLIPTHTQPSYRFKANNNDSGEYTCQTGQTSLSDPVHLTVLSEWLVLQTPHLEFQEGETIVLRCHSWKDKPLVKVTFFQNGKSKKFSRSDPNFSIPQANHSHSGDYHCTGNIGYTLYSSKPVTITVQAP
Briefly: ELISA.

In test [10] the target is T2, soluble monomeric FcγRIIIA (extracellular region joined to linker-AVITAG), allele not stated (human, UniProt P08637 17-208).
T2 construct: extracellular domain; also called FcRIIIA; CD16A; not shown: linker-AVITAG
T2 sequence (P08637 17-208): as the sequence (P08637 17-208) above
Briefly: ELISA.

Consider “IgG1 Fc mutant S298N, S407R (from UniProt P01857 1-330) (antibody)”, for which, in [1], the Binding to FcγRIIIA (ELISA) (fold increase) came to 0.5. Turning to “IgG1 Fc mutant S383N; N384K; T256N; V262L; K218E; R214I; K205E; F149Y; K133M (from UniProt P01857 1-330) (antibody)”, the Binding to FcγRIIIA (ELISA) (fold increase) in test [1] came to 0.5. The term Kd denotes the free concentration of one partner at which half of the binding sites on the other are occupied at equilibrium, for simple one-to-one binding. The low end stands for tighter binding, the high end for weaker binding. Turning to ch4D5 wild type (IgG1) (antibody), the Kd in test [2] was found to be 1540 nM; in test [3], 36000 nM. For the molecule “IgG1 Fc mutant D312E, K327N, I378S (from UniProt P01857 1-330) (antibody)”, the Binding to FcγRIIIA (ELISA) (fold increase) in test [1] was 0.5. In the case of “IgG1 Fc mutant S407I (from UniProt P01857 1-330) (antibody)”, the Binding to FcγRIIIA (ELISA) (fold increase) in test [1] turned out to be 0.5. For the molecule “IgG1 Fc mutant H310Y; T289A; G337E (from UniProt P01857 1-330) (antibody)”, in test [1], the Binding to FcγRIIIA (ELISA) (fold increase) turned out to be 0.5. As for “IgG1 Fc mutant D399E, M428L (from UniProt P01857 1-330) (antibody)”, in [1], the Binding to FcγRIIIA (ELISA) (fold decrease) was found to be 0.5. The Binding to FcγRIIB (ELISA) (fold decrease) in [4] turned out to be 0.5. For “IgG1 Fc mutant V348M; K334N; F275I; Y202M; K147T (from UniProt P01857 1-330) (antibody)”, the Binding to FcγRIIIA (ELISA) (fold increase) in [1] came to 0.5.

ch4-4-20 wild type (antibody): the dissociation constant Kd in test [5] was found to be 61.4 nM; in [6] it was 198 nM; in test [7] it was 94 nM; in test [8] it was 319 nM. In test [1], this molecule displayed an ELISA IIIA binding of 1 fold. Besides, the ELISA OD was determined as 0.5 OD in test [1] and 0.4 OD in [4].

B1: IgG1 Fc mutant K246N, Q419R, P396L (antibody)
heavy: ASTKGPSVFPLAPSSKSTSGGTAALGCLVKDYFPEPVTVSWNSGALTSGVHTFPAVLQSSGLYSLSSVVTVPSSSLGTQTYICNVNHKPSNTKVDKKVEPKSCDKTHTCPPCPAPELLGGPSVFLFPPNPKDTLMISRTPEVTCVVVDVSHEDPEVKFNWYVDGVEVHNAKTKPREEQYNSTYRVVSVLTVLHQDWLNGKEYKCKVSNKALPAPIEKTISKAKGQPREPQVYTLPPSRDELTKNQVSLTCLVKGFYPSDIAVEWESNGQPENNYKTTPLVLDSDGSFFLYSKLTVDKSRWQRGNVFSCSVMHEALHNHYTQKSLSLSPGK
For the molecule B1, in [9], the “Binding to FcγRIIB (ELISA)” value came to 4.8 fold increase. Further, the “Binding to FcγRIIIA (ELISA)” value in test [10] turned out to be 1.1 fold increase.

B2: IgG1 Fc mutant K326I, S408N, P396L (antibody)
heavy: B1 heavy with N129K, K209I, S291N, R302Q
Consider B2, for which the “Binding to FcγRIIB (ELISA)” value in test [9] stood at 9.3 fold increase. In test [10], the “Binding to FcγRIIIA (ELISA)” value worked out at 4 fold increase.

B3: IgG1 Fc mutant P247L, W313R, E388G (antibody)
heavy: B1 heavy with N129K, P130L, W196R, E271G, L279P, R302Q
As for B3, in test [9], the “Binding to FcγRIIB (ELISA)” value is 1 fold increase. Further, the “Binding to FcγRIIIA (ELISA)” value in [10] turned out to be 1.5 fold increase.

B4: IgG1 Fc mutant K246R, S298N, I377F (antibody)
heavy: B1 heavy with N129R, S181N, I260F, L279P, R302Q
In the case of B4, in test [9], the “Binding to FcγRIIB (ELISA)” value was 5 fold increase. Further, in test [10], the “Binding to FcγRIIIA (ELISA)” value worked out at 1 fold increase.

B5: IgG1 Fc mutant P343S, P353L, S375I, S383N (antibody)
heavy: B1 heavy with N129K, P226S, P236L, S258I, S266N, L279P, R302Q
Turning to B5, in test [9], the “Binding to FcγRIIB (ELISA)” value is 6 fold increase. Further, the “Binding to FcγRIIIA (ELISA)” value in test [10] came to 0.5 fold increase.

B6: IgG1 Fc mutant K326Q, K334E, T359N, T366S (antibody)
heavy: B1 heavy with N129K, K209Q, K217E, T242N, T249S, L279P, R302Q
B6: the “Binding to FcγRIIB (ELISA)” value in test [9] was 5 fold increase. Moreover, the “Binding to FcγRIIIA (ELISA)” value in [10] came to 1.5 fold increase.

B7: IgG1 Fc mutant R301H, K340E, D399E (antibody)
heavy: B1 heavy with N129K, R184H, K223E, L279P, D282E, R302Q
In the case of B7, the “Binding to FcγRIIB (ELISA)” value in test [9] was found to be 0.25 fold decrease. Besides, the “Binding to FcγRIIIA (ELISA)” value in [10] is 0.5 fold decrease.

B8: IgG1 Fc mutant K290T, N390I, P396L (antibody)
heavy: B1 heavy with N129K, K173T, N273I, R302Q
In the case of B8, the “Binding to FcγRIIB (ELISA)” value in test [9] was found to be 6.1 fold increase. In test [10], the “Binding to FcγRIIIA (ELISA)” value came out at 2.8 fold increase.

B9: IgG1 Fc mutant V273I, K326E, L328I, P396L (antibody)
heavy: B1 heavy with N129K, V156I, K209E, L211I, R302Q
As to B9, in test [9], the “Binding to FcγRIIB (ELISA)” value worked out at 10.8 fold increase. For the same molecule, in test [10], the “Binding to FcγRIIIA (ELISA)” value is 1.3 fold increase.

B10: IgG1 Fc mutant V282E, V369I, L406F (antibody)
heavy: B1 heavy with N129K, V165E, V252I, L279P, L289F, R302Q
Regarding B10, the “Binding to FcγRIIB (ELISA)” value in [9] is 7 fold increase. Besides, the “Binding to FcγRIIIA (ELISA)” value in test [10] was determined as 0.5 fold increase.

B11: IgG1 Fc mutant K334E, E380D, G446V (antibody)
heavy: B1 heavy with N129K, K217E, E263D, L279P, R302Q, G329V
For B11, the binding result in test [9] and in [10] was “no binding” throughout.

B12: IgG1 Fc mutant P247L, I253N, K334N (antibody)
heavy: B1 heavy with N129K, P130L, I136N, K217N, L279P, R302Q
On to B12, for which the “Binding to FcγRIIB (ELISA)” value in test [9] turned out to be 2.5 fold increase. For the same molecule, the “Binding to FcγRIIIA (ELISA)” value in test [10] came to 3 fold increase.

B13: IgG1 Fc mutant V303I, V369F, M428L (antibody)
heavy: B1 heavy with N129K, V186I, V252F, L279P, R302Q, M311L
Regarding B13, the binding result in test [9] and in [10] was “no binding” each time.

B14: IgG1 Fc mutant K290E, V369A, T393A, P396L (antibody)
heavy: B1 heavy with N129K, K173E, V252A, T276A, R302Q
Consider B14, for which the “Binding to FcγRIIB (ELISA)” value in test [9] turned out to be 6.7 fold increase. The “Binding to FcγRIIIA (ELISA)” value in [10] is 1.3 fold increase.

B15: IgG1 Fc mutant P247L, A330T, S440G (antibody)
heavy: B1 heavy with N129K, P130L, A213T, L279P, R302Q, S323G
In the case of B15, the “Binding to FcγRIIB (ELISA)” value in [9] was found to be 0.25 fold decrease. Also, the “Binding to FcγRIIIA (ELISA)” value in [10] stood at 0.75 fold increase.

B16: IgG1 Fc mutant V397M, T411A, S415N (antibody)
heavy: B1 heavy with N129K, L279P, V280M, T294A, S298N, R302Q
In the case of B16, the “Binding to FcγRIIB (ELISA)” value in [9] was 5 fold increase. The “Binding to FcγRIIIA (ELISA)” value in [10] came to 0.25 fold increase.

B17: IgG1 Fc mutant P244H, L358M, V379M, N384K, V397M (antibody)
heavy: B1 heavy with P127H, N129K, L241M, V262M, N267K, L279P, V280M, R302Q
For B17, the “Binding to FcγRIIB (ELISA)” value in test [9] amounted to 1.5 fold increase. Moreover, the “Binding to FcγRIIIA (ELISA)” value in test [10] was determined as 1.75 fold increase.
